Results reported in US20240425603A1 (Janssen / Centocor, published 2024).
Where “and” joins values, the source holds several entries; their conditions need not be identical. Identical values can stand only once.

Legend:
[1] = target: T1, cynomolgus monkey VEGFR1 (soluble antigen of the KinExA and SPR affinity assays) (cynomolgus monkey); assay: SPR
[2] = target: T1, cynomolgus monkey VEGFR1 (soluble …); assay: KinExA, solution
Protocol: (§1) Kinetic exclusion assay (KEA; KinExA) was used to analyze the binding of anti-VEGFR1 antibodies to human, mouse and cynomolgus monkeys VEGFR1. KEA is a fluorescence-based solution method, and it is described in detail in the literature (Darling and Brault, 2004). To measure the affinity of an interaction, a series of solutions with a fixed concentration of one interactant (A) and varying concentrations of another interactant (B) are prepared and allowed to reach equilibrium. After equilibration, the concentration of free A is determined by flowing the equilibrated mixture through a column packed with beads modified with reactant B. Free A binds to the beads and is then detected using a fluorescently labeled polyclonal antibody.
(§2) Briefly, fixed concentrations (300 pM, 60 pM, 12 pM, 2.4 or 0.5 pM) of Ab were used to prepare a serial dilution of the antigen (2 nM to 0.52 pM, or 800 pM to 5.37 fM). The complex titrations were incubated at RT to reach binding equilibrium for at least 2 days. After incubation, the samples were run on the KinExA3200 or KinExA4000 instrument to assess free antibody in the reaction. During these studies some of the data were rejected because the experiments failed or failed the acceptance criteria. For mouse VEGFR1 the 60 and 300 pM concentrations were rejected due to high titrant related NSB. The dissociation equilibrium constant, (KD), was determined using the n-curve analysis feature of the KinExA Pro software. This program uses nonlinear least-square regression analysis of the globally fitted data to a 1:1 binding model. (CI=confidence interval).

[3] = target: T2, mouse VEGFR1 (soluble antigen of the KinExA and SPR affinity assays) (mouse, UniProt P35969 23-759, limits assumed); assay: KinExA, solution
T2 sequence (looked up): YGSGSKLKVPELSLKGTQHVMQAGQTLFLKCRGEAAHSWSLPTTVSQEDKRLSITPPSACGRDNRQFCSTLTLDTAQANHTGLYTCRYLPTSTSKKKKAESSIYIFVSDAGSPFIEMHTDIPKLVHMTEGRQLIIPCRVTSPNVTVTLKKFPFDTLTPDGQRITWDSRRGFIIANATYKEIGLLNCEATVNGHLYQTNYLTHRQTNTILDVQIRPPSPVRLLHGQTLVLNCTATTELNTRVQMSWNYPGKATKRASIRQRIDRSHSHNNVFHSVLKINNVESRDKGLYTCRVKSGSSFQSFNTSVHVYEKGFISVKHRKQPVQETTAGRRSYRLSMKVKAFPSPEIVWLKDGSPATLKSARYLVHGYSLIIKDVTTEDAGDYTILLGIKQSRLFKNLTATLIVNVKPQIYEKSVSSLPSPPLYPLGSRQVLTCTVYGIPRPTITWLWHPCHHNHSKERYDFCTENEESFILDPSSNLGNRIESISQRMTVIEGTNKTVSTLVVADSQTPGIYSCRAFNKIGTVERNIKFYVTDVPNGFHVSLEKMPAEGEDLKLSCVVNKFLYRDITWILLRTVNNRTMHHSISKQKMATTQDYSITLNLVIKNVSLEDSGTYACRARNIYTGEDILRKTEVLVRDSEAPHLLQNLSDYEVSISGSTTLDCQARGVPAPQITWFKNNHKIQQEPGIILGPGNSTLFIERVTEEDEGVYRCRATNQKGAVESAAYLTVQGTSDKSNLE
Protocol: as §1, §2

[4] = target: T3, human VEGFR3, over-expressed on K562 cells (human, UniProt P35916 25-1363); assay: flow cytometry, 10 nM antibody, K562 cells over-expressing human VEGFR3
T3 construct: whole, on cells; also called huVEGFR3; hVEGFR3

[5] = target: T4, Recombinant human VEGFR1-Fc (R&D Systems) (human, UniProt P17948 27-687, limits assumed); assay: MSD ECL competition on plate-bound human VEGFR1-Fc; competitor biotin PlGF (2 nM)
T4 construct: bought; not shown: Fc part of the bought fusion, not described
In short: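 Half-log antibody dilutions were pre-incubated for 30 minutes with VEGFR1 (human or mouse Fc fusion, or His-tagged cyno; 0.5 ug/ml) that had been captured for 1 hour at room temperature on blocked MSD 384 plates coated with Protein A/G or anti-His mAb. Biotinylated VEGFA (0.2 nM) or PlGF (2 nM) was then added and bound ligand was read with Sulfo-tagged streptavidin on an MSD SECTOR S 600 imager. IC50 and maximal percent inhibition were calculated from the electro-chemiluminescence readings.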

[6] = target: T5, NECTIN1 Isoform Gamma (NM_203286.1) (human, UniProt Q15223-3 31-352); assay: Retrogenix cell microarray, fixed HEK293 cells; blank cells in Table 32 (topology TS and S)
T5 construct: whole, on cells
T5 sequence (looked up): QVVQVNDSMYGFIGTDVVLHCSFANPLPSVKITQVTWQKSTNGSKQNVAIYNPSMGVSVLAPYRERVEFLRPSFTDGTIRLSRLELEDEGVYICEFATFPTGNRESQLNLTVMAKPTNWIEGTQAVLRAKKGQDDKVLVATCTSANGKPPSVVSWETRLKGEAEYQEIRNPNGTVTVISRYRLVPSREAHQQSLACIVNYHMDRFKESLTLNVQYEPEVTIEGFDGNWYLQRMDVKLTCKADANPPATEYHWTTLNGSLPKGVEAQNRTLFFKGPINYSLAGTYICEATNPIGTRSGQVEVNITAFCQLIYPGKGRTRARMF
Protocol: This human cell microarray methodology has been previously described in the literature (Freeth, J. et al, SLAS Discovery, 25 (2), 223-230, 2020). Primary screening was performed on slides arrayed with fixed HEK293 cells with each spot of HEK293 cells expressing either a unique protein from the cell surface-ome, a cell surface tethered human secreted protein, or a heterodimeric human cell surface receptor. In total, 5,528 unique gene products were represented in this primary screen (4,103 human plasma membrane proteins (+some untethered secreted proteins)+1,425 cell surface tethered human secreted proteins). Briefly, slides containing fixed transfected HEK293 cells were overlaid with a solution of test antibody (2 μg/mL), incubated, and washed. Binding was assessed using AlexaFluor647-conjugated anti-human IgG Fc detection antibody and fluorescence quantitation on ImageQuant. […] Located in the ER, off-target binding to CRELD2 was of less concern. Nectin-1, FGFR2, and ISLR, on the other hand, display broad tissue expression profiles. Cross-reactivity to these proteins is undesirable because binding to these targets might have a significant impact on pharmacokinetic and biodistribution profiles of the molecules. This off-target binding was subsequently confirmed by flow cytometry on live HEK293 cells transiently expressing these ‘off-target’ proteins identified in the primary screen.

T4 sequence (P17948 27-687 limits assumed): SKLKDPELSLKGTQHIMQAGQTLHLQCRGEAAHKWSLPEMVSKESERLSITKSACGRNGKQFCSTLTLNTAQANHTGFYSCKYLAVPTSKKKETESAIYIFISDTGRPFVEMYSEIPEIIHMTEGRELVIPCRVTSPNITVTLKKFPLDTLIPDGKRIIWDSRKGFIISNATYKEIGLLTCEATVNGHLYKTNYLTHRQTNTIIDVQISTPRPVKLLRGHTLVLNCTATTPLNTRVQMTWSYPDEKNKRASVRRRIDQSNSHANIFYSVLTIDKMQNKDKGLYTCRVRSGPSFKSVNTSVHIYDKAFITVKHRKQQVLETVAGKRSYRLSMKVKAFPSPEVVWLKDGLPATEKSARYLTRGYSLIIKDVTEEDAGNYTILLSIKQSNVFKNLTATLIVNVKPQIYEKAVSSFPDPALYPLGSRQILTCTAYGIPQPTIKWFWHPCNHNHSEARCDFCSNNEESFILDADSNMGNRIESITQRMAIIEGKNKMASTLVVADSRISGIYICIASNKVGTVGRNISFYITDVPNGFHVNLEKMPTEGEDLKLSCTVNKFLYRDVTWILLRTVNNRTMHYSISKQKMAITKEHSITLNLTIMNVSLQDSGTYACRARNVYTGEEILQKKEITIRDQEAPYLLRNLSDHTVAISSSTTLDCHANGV
T3 sequence (P35916 25-1363): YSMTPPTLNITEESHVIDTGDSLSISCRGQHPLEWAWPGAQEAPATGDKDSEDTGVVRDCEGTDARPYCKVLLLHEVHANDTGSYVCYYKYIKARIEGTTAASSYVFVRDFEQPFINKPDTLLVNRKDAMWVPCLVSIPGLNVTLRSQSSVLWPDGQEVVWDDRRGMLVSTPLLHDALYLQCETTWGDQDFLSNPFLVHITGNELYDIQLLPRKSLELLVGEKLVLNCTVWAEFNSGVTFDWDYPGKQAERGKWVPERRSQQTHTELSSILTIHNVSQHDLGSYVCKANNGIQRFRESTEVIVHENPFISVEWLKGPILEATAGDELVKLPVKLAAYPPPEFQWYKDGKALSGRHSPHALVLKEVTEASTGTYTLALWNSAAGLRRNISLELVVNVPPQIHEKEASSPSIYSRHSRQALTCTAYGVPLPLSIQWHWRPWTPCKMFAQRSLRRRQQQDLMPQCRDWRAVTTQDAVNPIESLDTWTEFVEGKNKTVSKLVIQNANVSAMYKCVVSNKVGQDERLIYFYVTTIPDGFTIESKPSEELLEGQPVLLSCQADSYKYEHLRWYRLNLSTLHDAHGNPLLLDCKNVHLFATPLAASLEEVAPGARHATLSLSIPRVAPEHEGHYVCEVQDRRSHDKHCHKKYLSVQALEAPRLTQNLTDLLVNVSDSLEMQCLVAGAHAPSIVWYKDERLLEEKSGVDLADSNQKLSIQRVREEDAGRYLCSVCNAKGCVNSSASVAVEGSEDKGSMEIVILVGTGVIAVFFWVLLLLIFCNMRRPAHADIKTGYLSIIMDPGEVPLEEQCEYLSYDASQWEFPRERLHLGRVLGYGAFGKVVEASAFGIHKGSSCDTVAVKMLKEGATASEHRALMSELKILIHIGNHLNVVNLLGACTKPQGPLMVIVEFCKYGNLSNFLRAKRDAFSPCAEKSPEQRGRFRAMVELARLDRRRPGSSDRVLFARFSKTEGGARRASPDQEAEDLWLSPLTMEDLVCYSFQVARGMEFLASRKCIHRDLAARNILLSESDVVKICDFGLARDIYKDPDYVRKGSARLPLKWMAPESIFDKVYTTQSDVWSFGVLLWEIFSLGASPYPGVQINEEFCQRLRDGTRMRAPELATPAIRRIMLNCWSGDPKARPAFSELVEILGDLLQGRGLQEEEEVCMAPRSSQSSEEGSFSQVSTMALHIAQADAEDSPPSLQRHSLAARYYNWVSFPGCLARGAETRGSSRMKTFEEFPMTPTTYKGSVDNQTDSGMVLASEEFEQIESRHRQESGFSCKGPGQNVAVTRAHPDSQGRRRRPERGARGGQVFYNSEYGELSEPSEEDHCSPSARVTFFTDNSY

B1: VGFB82 (antibody, human IgG1, lambda, L234A L235A, V domains shown)
VH: EVQLLESGGGLVQPGGSLRLSCEASGFDFSTYAMNWVRQAPGKGLEWVATINSEGTITSHAPAVKGRFTISRDNSKNTAYVQMNSLRAEDSAVYYCSSTTGTTHGMDVWGRGTTVTVSS
VL: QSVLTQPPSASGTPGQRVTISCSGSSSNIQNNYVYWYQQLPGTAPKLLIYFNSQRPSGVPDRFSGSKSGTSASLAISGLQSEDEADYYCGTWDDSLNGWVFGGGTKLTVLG
notes: human IgG1 (L234A/L235A/D265S)
[1]
  Kd: 0.038 nM and 0.023 nM
[2]
  Kd: 0.0003 nM
[3]
  Kd: 0.023 nM
[4]
  Geomean over-expressing/Geomean parental (Fold Signal/Background): 1.01 fold
[5]
  IC50: 0.183 nM
  Max % Inh.: 100%
[6]
  binding result: no binding (tested: 2 µg/mL)

B2: VGFB54 (antibody, human IgG1, lambda, L234A L235A, V domains shown)
VH: EVQLLESGGGSVQPGGSLRLSCTASGFNFEDYGMNWVRQAPGKGLDWVSSINRNGDISTYHVDSVKGRFTISRDNSKNTLYLQMNSLRAEDTAIYYCTKNHDYHGMDVWGQGTTVTVSS
VL: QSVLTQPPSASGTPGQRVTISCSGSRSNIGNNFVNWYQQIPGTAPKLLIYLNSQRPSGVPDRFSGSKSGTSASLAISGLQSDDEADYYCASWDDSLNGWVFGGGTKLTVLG
notes: human IgG1 (L234A/L235A/D265S), lambda, 2H:2L; from OmniChicken
[1]
  Kd: 0.016 nM and 0.018 nM
[4]
  Geomean over-expressing/Geomean parental (Fold Signal/Background): 0.97 fold
[5]
  IC50: 0.159 nM
  Max % Inh.: 100%
[6]
  binding result: no binding (tested: 2 µg/mL)

B3: VGFB71 (antibody, human IgG1, lambda, L234A L235A, V domains shown)
VH: EVQLLESGGGLVQPGGSLRLSCEASGFIFRDYNMNWVRQAPGKGLEWVSIITNDGSSTAYSDSVKGRFTISRDNSKNSLYLQMNSLRAEDTAIYYCVKVYYGMDDWGQGTTVTVSS
VL: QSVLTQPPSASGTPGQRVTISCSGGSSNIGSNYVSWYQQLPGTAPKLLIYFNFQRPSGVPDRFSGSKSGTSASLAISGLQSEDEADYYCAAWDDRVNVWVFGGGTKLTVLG
notes: as for B1
[4]
  Geomean over-expressing/Geomean parental (Fold Signal/Background): 0.98 fold

B4: VGFB78 (antibody, human IgG1, lambda, L234A L235A, V domains shown)
VH: EVQLLESGGGLVQPGGSLRLSCAASSFTFYNYDMTWVRQAPGKGLEWVAGIGTSGTDMYYADSVKGRFTISRDNSKNTLYLQMNSLRAEDTAIYYCAKDYYYYGMDVWGLGTTVTVSS
VL: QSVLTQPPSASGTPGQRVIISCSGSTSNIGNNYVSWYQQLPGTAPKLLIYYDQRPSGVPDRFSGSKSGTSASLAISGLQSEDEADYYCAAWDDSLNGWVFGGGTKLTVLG
notes: as for B1
[2]
  Kd: 0.00071 nM
[3]
  Kd: 0.00385 nM
[4]
  Geomean over-expressing/Geomean parental (Fold Signal/Background): 0.99 fold
[5]
  IC50: 0.335 nM
  Max % Inh.: 100%
